Results on one substance are retold here after paper PMC9800282.

For the assay, the target named is vitronectin (VTN) (UniProt P04004). The assay is described as follows: SPR; Biacore T200; LNA043 (~3,000 RU), FN1 or VTN (~500 RU) amine-coupled to CM5; integrins as analytes 0.6–10 μM, single-cycle kinetics, 37 °C, 1× HBS-N, 0.005% Tween 20, 1 mM MgCl2, 1 mM CaCl2, 2 mM MnCl2; 1:1 binding fit. On the technique in general: In SPR one partner is held on a chip, and binding of the other changes the refractive index at the surface.
Chain of vitronectin (VTN) (P04004 20-478): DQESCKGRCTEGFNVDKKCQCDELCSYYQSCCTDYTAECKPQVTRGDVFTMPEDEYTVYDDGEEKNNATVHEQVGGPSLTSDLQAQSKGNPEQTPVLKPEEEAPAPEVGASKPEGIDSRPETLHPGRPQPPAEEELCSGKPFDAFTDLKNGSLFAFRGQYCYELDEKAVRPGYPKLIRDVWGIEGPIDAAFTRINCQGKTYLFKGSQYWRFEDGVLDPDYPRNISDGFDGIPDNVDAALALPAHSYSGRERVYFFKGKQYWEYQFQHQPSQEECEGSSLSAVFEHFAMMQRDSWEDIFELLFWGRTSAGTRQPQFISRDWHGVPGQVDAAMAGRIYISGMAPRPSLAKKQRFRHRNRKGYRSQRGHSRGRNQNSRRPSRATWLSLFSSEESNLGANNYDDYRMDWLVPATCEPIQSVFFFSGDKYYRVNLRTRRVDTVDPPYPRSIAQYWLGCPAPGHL

A word on the Kd: it is the free concentration of one partner at which half of the binding sites on the other are occupied at equilibrium, for simple one-to-one binding. Lower therefore signals higher affinity.

“recombinant human αvβ3 integrin (from UniProt P06756 31-1048; P05106 27-718) (complex)” yielded a Kd of 997 nM.
